Data published in patent US20150344570A1 (published 2015).

T1: FcγRIIb extracellular domain with C-terminal His tag (human, UniProt P31994 43-217)
T1 construct: extracellular domain; also called FcgRIIb; 2b; not shown: His tag at the C terminus
T1 sequence (looked up): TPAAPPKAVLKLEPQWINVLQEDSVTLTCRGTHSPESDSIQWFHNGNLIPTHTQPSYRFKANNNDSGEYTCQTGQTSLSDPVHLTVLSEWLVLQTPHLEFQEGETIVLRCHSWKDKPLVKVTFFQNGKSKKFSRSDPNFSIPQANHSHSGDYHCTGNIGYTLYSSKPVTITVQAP

T2: FcγRIIa H (FcγRIIa type H, His at position 131), extracellular domain with C-terminal His tag (human, UniProt P12318 34-217)
T2 construct: extracellular domain; also called FcgRIIa H; 2aH
T2 sequence (looked up): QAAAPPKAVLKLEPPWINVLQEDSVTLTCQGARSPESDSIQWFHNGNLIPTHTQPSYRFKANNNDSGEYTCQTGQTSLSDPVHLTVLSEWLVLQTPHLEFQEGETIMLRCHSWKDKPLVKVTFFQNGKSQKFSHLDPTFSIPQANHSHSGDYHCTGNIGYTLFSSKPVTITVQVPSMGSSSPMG

B1: GpH7-B3 variant K326_07I/GpL16-k0 (antibody, human IgG1, kappa)
heavy: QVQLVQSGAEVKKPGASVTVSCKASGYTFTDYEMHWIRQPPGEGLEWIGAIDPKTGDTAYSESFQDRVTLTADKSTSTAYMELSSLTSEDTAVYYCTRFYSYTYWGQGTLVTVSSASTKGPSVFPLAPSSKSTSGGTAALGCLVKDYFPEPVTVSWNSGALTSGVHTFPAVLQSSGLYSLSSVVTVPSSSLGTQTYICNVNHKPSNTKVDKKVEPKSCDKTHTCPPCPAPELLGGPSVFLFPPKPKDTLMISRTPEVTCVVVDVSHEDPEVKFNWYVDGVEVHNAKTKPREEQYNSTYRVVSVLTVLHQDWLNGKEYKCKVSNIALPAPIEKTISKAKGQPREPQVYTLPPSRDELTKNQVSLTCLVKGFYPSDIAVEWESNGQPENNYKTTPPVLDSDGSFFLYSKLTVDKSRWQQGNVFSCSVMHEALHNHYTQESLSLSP
light: DIVMTQSPLSLPVTPGEPASISCQASESLVHSNRNTYLHWYLQKPGQSPQLLIYKVSNRFSGVPDRFSGSGSGTDFTLKISRVEAEDVGVYYCSQNTHVPPTFGQGTKVEIERTVAAPSVFIFPPSDEQLKSGTASVVCLLNNFYPREAKVQWKVDNALQSGNSQESVTEQDSKDSTYSLSSTLTLSKADYEKHKVYACEVTHQGLSSPVTKSFNRGEC
notes: also called Ho Ab K326_07I
B2: GpH7-B3 variant A330_01G/GpL16-k0 (antibody, human IgG1, kappa)
heavy: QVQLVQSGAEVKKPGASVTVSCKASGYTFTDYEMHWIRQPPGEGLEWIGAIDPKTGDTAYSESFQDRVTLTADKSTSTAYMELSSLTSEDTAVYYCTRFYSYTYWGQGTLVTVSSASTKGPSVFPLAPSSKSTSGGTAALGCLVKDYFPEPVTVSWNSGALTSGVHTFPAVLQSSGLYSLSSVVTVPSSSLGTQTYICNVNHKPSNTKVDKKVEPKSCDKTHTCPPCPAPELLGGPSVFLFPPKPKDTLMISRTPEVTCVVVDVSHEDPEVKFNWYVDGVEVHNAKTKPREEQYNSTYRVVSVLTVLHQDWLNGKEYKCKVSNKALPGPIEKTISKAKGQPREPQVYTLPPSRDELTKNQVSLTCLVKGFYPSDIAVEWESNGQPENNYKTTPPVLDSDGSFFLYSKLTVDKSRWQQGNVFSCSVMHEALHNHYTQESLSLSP
light: B1 light
notes: also called Ho Ab A330_01G
B3: GpH7-B3 variant A327_10E/GpL16-k0 (antibody, human IgG1, kappa)
heavy: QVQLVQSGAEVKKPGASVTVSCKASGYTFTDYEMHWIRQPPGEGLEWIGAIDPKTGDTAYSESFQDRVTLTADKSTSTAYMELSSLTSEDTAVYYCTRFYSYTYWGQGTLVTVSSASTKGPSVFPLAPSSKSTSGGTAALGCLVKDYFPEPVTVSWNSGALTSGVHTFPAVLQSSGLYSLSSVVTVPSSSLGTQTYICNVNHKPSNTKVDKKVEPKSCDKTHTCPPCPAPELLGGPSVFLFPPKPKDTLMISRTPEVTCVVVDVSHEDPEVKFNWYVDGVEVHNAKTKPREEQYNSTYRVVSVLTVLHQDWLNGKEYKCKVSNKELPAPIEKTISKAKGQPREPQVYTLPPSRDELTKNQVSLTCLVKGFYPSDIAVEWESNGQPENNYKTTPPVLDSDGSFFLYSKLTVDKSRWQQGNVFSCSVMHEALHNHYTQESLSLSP
light: B1 light
notes: also called Ho Ab A327_10E
B4: GpH7-B3 variant A327_09D/GpL16-k0 (antibody, human IgG1, kappa)
heavy: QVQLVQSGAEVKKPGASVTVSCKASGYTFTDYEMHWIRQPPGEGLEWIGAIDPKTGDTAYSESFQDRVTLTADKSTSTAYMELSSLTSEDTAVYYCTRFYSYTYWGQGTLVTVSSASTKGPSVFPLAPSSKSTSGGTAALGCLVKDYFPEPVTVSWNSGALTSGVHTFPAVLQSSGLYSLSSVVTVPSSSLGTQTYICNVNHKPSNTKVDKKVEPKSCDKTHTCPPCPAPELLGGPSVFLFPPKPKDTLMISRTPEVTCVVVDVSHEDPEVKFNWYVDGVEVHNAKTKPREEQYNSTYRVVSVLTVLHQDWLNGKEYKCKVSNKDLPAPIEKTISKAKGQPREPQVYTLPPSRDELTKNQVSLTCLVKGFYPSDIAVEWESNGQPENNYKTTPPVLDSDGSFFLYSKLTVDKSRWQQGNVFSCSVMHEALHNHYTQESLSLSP
light: B1 light
notes: also called Ho Ab A327_09D
B5: GpH7-A5/GpH7-B3 variant I332_14T/GpL16-k0 (antibody, human IgG1, kappa)
heavy 1: not shown
heavy 2: not shown
light: B1 light
notes: one H chain mutated; also called He Ab
B6: GpH7-A5/GpH7-B3 variant K334_15Y/GpL16-k0 (antibody, human IgG1, kappa)
heavy 1: not shown
heavy 2: not shown
light: B1 light
notes: as for B5
B7: GpH7-A5/GpH7-B3 variant L328_02A/GpL16-k0 (antibody, human IgG1, kappa)
heavy 1: not shown
heavy 2: not shown
light: B1 light
notes: as for B5
B8: GpH7-A5/GpH7-B3 variant T335_01G/GpL16-k0 (antibody, human IgG1, kappa)
heavy 1: not shown
heavy 2: not shown
light: B1 light
notes: as for B5
B9: GpH7-A5/GpH7-B3 variant S337_14T/GpL16-k0 (antibody, human IgG1, kappa)
heavy 1: not shown
heavy 2: not shown
light: B1 light
notes: as for B5
B10: GpH7-A5/GpH7-B3 variant I336_06M/GpL16-k0 (antibody, human IgG1, kappa)
heavy 1: not shown
heavy 2: not shown
light: B1 light
notes: as for B5
B11: GpH7-A5/GpH7-B3 variant K326_06M/GpL16-k0 (antibody, human IgG1, kappa)
heavy 1: not shown
heavy 2: not shown
light: B1 light
notes: as for B5
B12: GpH7-A5/GpH7-B3 variant K334_14T/GpL16-k0 (antibody, human IgG1, kappa)
heavy 1: not shown
heavy 2: not shown
light: B1 light
notes: as for B5
B13: GpH7-A5/GpH7-B3 variant K326_19Q/GpL16-k0 (antibody, human IgG1, kappa)
heavy 1: not shown
heavy 2: not shown
light: B1 light
notes: as for B5
B14: GpH7-A5/GpH7-B3 variant T335_15Y/GpL16-k0 (antibody, human IgG1, kappa)
heavy 1: not shown
heavy 2: not shown
light: B1 light
notes: as for B5
B15: GpH7-A5/GpH7-B3 variant S267_02A/GpL16-k0 (antibody, human IgG1, kappa)
heavy 1: not shown
heavy 2: not shown
light: B1 light
notes: as for B5
B16: GpH7-A5/GpH7-B3 variant K334_04F/GpL16-k0 (antibody, human IgG1, kappa)
heavy 1: not shown
heavy 2: not shown
light: B1 light
notes: as for B5
B17: GpH7-A5/GpH7-B3 variant K326_14T/GpL16-k0 (antibody, human IgG1, kappa)
heavy 1: not shown
heavy 2: not shown
light: B1 light
notes: as for B5
B18: GpH7-A5/GpH7-B3 variant T335_13S/GpL16-k0 (antibody, human IgG1, kappa)
heavy 1: not shown
heavy 2: not shown
light: B1 light
notes: as for B5
B19: GpH7-A5/GpH7-B3 variant L328_13S/GpL16-k0 (antibody, human IgG1, kappa)
heavy 1: not shown
heavy 2: not shown
light: B1 light
notes: as for B5
B20: GpH7-A5/GpH7-B3 variant P271_01G/GpL16-k0 (antibody, human IgG1, kappa)
heavy 1: not shown
heavy 2: not shown
light: B1 light
notes: as for B5
B21: GpH7-A5/GpH7-B3 variant K334_16H/GpL16-k0 (antibody, human IgG1, kappa)
heavy 1: not shown
heavy 2: not shown
light: B1 light
notes: as for B5
B22: GpH7-A5/GpH7-B3 variant I332_19Q/GpL16-k0 (antibody, human IgG1, kappa)
heavy 1: not shown
heavy 2: not shown
light: B1 light
notes: as for B5
B23: GpH7-A5/GpH7-B3 variant S337_10E/GpL16-k0 (antibody, human IgG1, kappa)
heavy 1: not shown
heavy 2: not shown
light: B1 light
notes: as for B5
B24: GpH7-A5/GpH7-B3 variant Q295_05P/GpL16-k0 (antibody, human IgG1, kappa)
heavy 1: not shown
heavy 2: not shown
light: B1 light
notes: as for B5
B25: GpH7-A5/GpH7-B3 variant K326_09D/GpL16-k0 (antibody, human IgG1, kappa)
heavy 1: not shown
heavy 2: not shown
light: B1 light
notes: as for B5
B26: GpH7-A5/GpH7-B3 variant S324_20W/GpL16-k0 (antibody, human IgG1, kappa)
heavy 1: not shown
heavy 2: not shown
light: B1 light
notes: as for B5
B27: GpH7-A5/GpH7-B3 variant S324_09D/GpL16-k0 (antibody, human IgG1, kappa)
heavy 1: not shown
heavy 2: not shown
light: B1 light
notes: as for B5
B28: GpH7-A5/GpH7-B3 variant S324_02A/GpL16-k0 (antibody, human IgG1, kappa)
heavy 1: not shown
heavy 2: not shown
light: B1 light
notes: as for B5
B29: GpH7-A5/GpH7-B3 variant I332_15Y/GpL16-k0 (antibody, human IgG1, kappa)
heavy 1: not shown
heavy 2: not shown
light: B1 light
notes: as for B5
B30: GpH7-A5/GpH7-B3 variant I332_18N/GpL16-k0 (antibody, human IgG1, kappa)
heavy 1: not shown
heavy 2: not shown
light: B1 light
notes: as for B5
B31: GpH7-A5/GpH7-B3 variant K334_03V/GpL16-k0 (antibody, human IgG1, kappa)
heavy 1: not shown
heavy 2: not shown
light: B1 light
notes: as for B5
B32: GpH7-A5/GpH7-B3 variant Q295_07I/GpL16-k0 (antibody, human IgG1, kappa)
heavy 1: not shown
heavy 2: not shown
light: B1 light
notes: as for B5
B33: GpH7-A5/GpH7-B3 variant T335_07I/GpL16-k0 (antibody, human IgG1, kappa)
heavy 1: not shown
heavy 2: not shown
light: B1 light
notes: as for B5
B34: GpH7-A5/GpH7-B3 variant S239_09D/GpL16-k0 (antibody, human IgG1, kappa)
heavy 1: not shown
heavy 2: not shown
light: B1 light
notes: as for B5
B35: GpH7-A5/GpH7-B3 variant I336_08L/GpL16-k0 (antibody, human IgG1, kappa)
heavy 1: not shown
heavy 2: not shown
light: B1 light
notes: as for B5
B36: GpH7-A5/GpH7-B3 variant K334_07[ (read as K334_07I)/GpL16-k0 (antibody, human IgG1, kappa)
heavy 1: not shown
heavy 2: not shown
light: B1 light
notes: as for B5
B37: GpH7-A5/GpH7-B3 variant S337_16H/GpL16-k0 (antibody, human IgG1, kappa)
heavy 1: not shown
heavy 2: not shown
light: B1 light
notes: as for B5
B38: GpH7-A5/GpH7-B3 variant S324_10E/GpL16-k0 (antibody, human IgG1, kappa)
heavy 1: not shown
heavy 2: not shown
light: B1 light
notes: as for B5
B39: GpH7-A5/GpH7-B3 variant L328_14T/GpL16-k0 (antibody, human IgG1, kappa)
heavy 1: not shown
heavy 2: not shown
light: B1 light
notes: as for B5
B40: GpH7-A5/GpH7-B3 variant T335_10E/GpL16-k0 (antibody, human IgG1, kappa)
heavy 1: not shown
heavy 2: not shown
light: B1 light
notes: as for B5
B41: GpH7-A5/GpH7-B3 variant I332_16H/GpL16-k0 (antibody, human IgG1, kappa)
heavy 1: not shown
heavy 2: not shown
light: B1 light
notes: as for B5
B42: GpH7-A5/GpH7-B3 variant T335_16H/GpL16-k0 (antibody, human IgG1, kappa)
heavy 1: not shown
heavy 2: not shown
light: B1 light
notes: as for B5
B43: GpH7-A5/GpH7-B3 variant K326_10E/GpL16-k0 (antibody, human IgG1, kappa)
heavy 1: not shown
heavy 2: not shown
light: B1 light
notes: as for B5
B44: GpH7-A5/GpH7-B3 variant S337_09D/GpL16-k0 (antibody, human IgG1, kappa)
heavy 1: not shown
heavy 2: not shown
light: B1 light
notes: as for B5
B45: GpH7-A5/GpH7-B3 variant L235_20W/GpL16-k0 (antibody, human IgG1, kappa)
heavy 1: not shown
heavy 2: not shown
light: B1 light
notes: as for B5
B46: GpH7-A5/GpH7-B3 variant S324_06M/GpL16-k0 (antibody, human IgG1, kappa)
heavy 1: not shown
heavy 2: not shown
light: B1 light
notes: as for B5
B47: GpH7-A5/GpH7-B3 variant L328_06M/GpL16-k0 (antibody, human IgG1, kappa)
heavy 1: not shown
heavy 2: not shown
light: B1 light
notes: as for B5
B48: GpH7-A5/GpH7-B3 variant T335_19Q/GpL16-k0 (antibody, human IgG1, kappa)
heavy 1: not shown
heavy 2: not shown
light: B1 light
notes: as for B5
B49: GpH7-A5/GpH7-B3 variant K334_08L/GpL16-k0 (antibody, human IgG1, kappa)
heavy 1: not shown
heavy 2: not shown
light: B1 light
notes: as for B5

molecular target: T1, FcγRIIb extracellular domain with …; test: SPR, relative binding, HoCon Ab = 100
Method: (§1) Analysis of interaction between objective antibody and the FcγR was carried out using Biacore T100 (GE Healthcare). HBS-EP+ (GE Healthcare) was used as the running buffer, and the measurement temperature was set to 25° C. Chips produced by immobilizing the antigen peptide by the amine coupling method to a Series S Sencor Chip CM5 (GE Healthcare), or alternatively, chips produced by allowing preliminarily biotinylated antigen peptides to interact with and immobilize onto a Series S Sensor Chip SA (certified) (GE Healthcare) were used. Antibodies of interest were captured onto an antigen peptide-immobilized chip, and allowed to interact to each FcγR diluted with running buffer. To regenerate and repeatedly use the chip, the antibodies captured on the chip were washed off by reacting 10 mM glycine-HCl, pH 1.5.

| Binder | Ho/Con_2b |
| --- | --- |
| B1 | 170 % of control |
| B2 | 102 % of control |
| B3 | 148 % of control |
| B4 | 175 % of control |

molecular target: T2, FcγRIIa H (FcγRIIa type H, His at …); test: SPR Biacore, relative binding, GpH7-A5/GpH7-B3/GpL16-k0 (HeCon Ab)=100
Method: as §1

| Binder | He/Con_2aH |
| --- | --- |
| B5 | 115 % of control |
| B6 | 106 % of control |
| B7 | 130 % of control |
| B8 | 103 % of control |
| B9 | 103 % of control |
| B10 | 106 % of control |
| B11 | 103 % of control |
| B12 | 103 % of control |
| B13 | 101 % of control |
| B14 | 106 % of control |
| B15 | 120 % of control |
| B16 | 106 % of control |
| B17 | 114 % of control |
| B18 | 106 % of control |
| B19 | 123 % of control |
| B20 | 107 % of control |
| B21 | 104 % of control |
| B22 | 108 % of control |
| B23 | 102 % of control |
| B24 | 103 % of control |
| B25 | 110 % of control |
| B26 | 103 % of control |
| B27 | 106 % of control |

| Binder | He/Con_2aH |
| --- | --- |
| B28 | 102 % of control |
| B29 | 115 % of control |
| B30 | 110 % of control |
| B31 | 109 % of control |
| B32 | 102 % of control |
| B33 | 108 % of control |
| B34 | 114 % of control |
| B35 | 106 % of control |
| B36 | 110 % of control |
| B37 | 101 % of control |
| B38 | 103 % of control |
| B39 | 116 % of control |
| B40 | 108 % of control |
| B41 | 109 % of control |
| B42 | 105 % of control |
| B43 | 102 % of control |
| B44 | 107 % of control |
| B45 | 118 % of control |
| B46 | 117 % of control |
| B47 | 104 % of control |
| B48 | 103 % of control |
| B49 | 104 % of control |
